In this data set the target is DNA polymerase beta (pol beta), [13CH3-Met,13CH3-Ile] labelled (UniProt P06746 1-335). Put plainly: NMR 1H-13C HMQC chemical shift perturbation, methyl-TROSY CPMG; binary complex; 5 mM MgCl2; ~175 uM pol beta, 10% excess DNA; D2O buffer: 50 mM Tris-d11 pH 7.6, 150 mM KCl, 5 mM MgCl2 (none for apoenzyme), 1 mM CDTA, 1 mM DTT, 0.1 mM AEBSF, 0.04% NaN3, 50 uM DSS; 35 C for assignment of.

Consider GGCGAAGCCTGGTGCGAAGCACC (structured_DNA) [1-nt-gapped double hairpin DNA (templating dT in gap)], for which the binding result is recorded as “binds”.

These data come from article PMC6101544.
